We go through 8 molecules from patent publication US20260053904A1 (BIOATLA, published 2026).

Where a chain is given by its changes, count along the chain named.

Experiment [1] addresses T1, recombinant human EpCAM extracellular domain (human, UniProt P16422 24-265).
T1 construct: extracellular domain; Plate-coated antigen of the ELISAs; also called human EpCAM ECD; recombinant EpCAM antigen
T1 sequence (looked up): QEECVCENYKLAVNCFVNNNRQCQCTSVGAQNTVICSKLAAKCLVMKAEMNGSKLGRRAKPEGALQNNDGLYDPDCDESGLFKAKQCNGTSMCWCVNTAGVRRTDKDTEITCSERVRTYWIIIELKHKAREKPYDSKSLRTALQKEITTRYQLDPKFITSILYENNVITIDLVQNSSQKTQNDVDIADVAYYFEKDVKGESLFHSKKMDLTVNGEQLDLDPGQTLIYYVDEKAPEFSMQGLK
As to the kind of experiment: ELISA on human EpCAM, pH range 5.0 to 7.4.

For experiment [2], the target named is T2, human EpCAM expressed on cells (CHO, Colo205, 293) (human, UniProt P16422 24-314).
T2 construct: whole, on cells; also called CHO cells expressing human EpCAM; Colo205 cells expressing human EpCAM
T2 sequence (looked up): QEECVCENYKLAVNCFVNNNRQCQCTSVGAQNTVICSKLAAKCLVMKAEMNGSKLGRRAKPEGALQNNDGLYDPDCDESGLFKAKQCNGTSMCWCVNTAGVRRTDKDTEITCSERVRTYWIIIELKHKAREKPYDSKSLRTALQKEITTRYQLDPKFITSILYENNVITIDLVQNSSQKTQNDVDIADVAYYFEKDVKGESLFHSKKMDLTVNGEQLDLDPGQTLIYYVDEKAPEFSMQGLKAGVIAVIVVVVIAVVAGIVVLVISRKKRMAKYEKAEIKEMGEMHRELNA
As to the kind of experiment: FACS on Colo205 cells expressing human EpCAM, pH 7.4. As for the experimental part:
(§1) Binding activities of the humanized conditionally active anti-EpCAM antibodies to Colo205 cells expressing human EpCAM were measured by FACS at pH 6.0 and pH 7.4. […] The EC50 values for binding to the Colo205 cells expressing human EpCAM by the humanized conditionally active anti-EpCAM antibodies are summarized in Table 9.

Experiment [3] deals with T3, cyno EpCAM (recombinant, ELISA antigen) (cynomolgus monkey).
T3 construct: extracellular domain; also called cynomolgus EpCAM extracellular domain
As to the kind of experiment: ELISA, cyno EpCAM, pH 7.4. On the procedure: (§2) The binding activities of the humanized conditionally active anti-EpCAM antibodies to cyno EpCAM were similarly measured. The EC50 for binding to the cyno EpCAM at pH 6.0 and pH 7.4 for the humanized conditionally active anti-EpCAM antibodies are summarized in Table 7.
(§3) The ELISA assay was performed using the following protocol: [0388] 1) Coat ELISA plates with 100 μL of 0.5 μg/mL (06_20_17 and 06_28_17 Experiments) or 1 μg/mL (07_06_17 and 07_11_17 Experiments) recombinant EpCAM antigen in carbonate-bicarbonate coating buffer [0389] 2) Cover plates with sealing film and incubate overnight at 4° C. [0390] 3) Decant plates and tap out residual liquid on a stack of paper towels [0391] […] 5) Add 200 μL of various pH incubation buffers to the wells according to the sample map.

In experiment [4] the target is T3, cyno EpCAM (recombinant, ELISA antigen). As to the kind of experiment: ELISA, cyno EpCAM, pH 6.0. As for the experimental part:
as §2, §3

Experiment [5] deals with T2, human EpCAM expressed on cells (CHO, …). Briefly: FACS on Colo205 cells expressing human EpCAM, pH 6.0. On the procedure:
as §1

Experiment [6] addresses T4, cyno EpCAM expressed on 293 cells (cynomolgus monkey).
T4 construct: whole, on cells; also called 293 cells expressing cyno EpCAM
Briefly: FACS on 293 cells expressing cyno EpCAM, pH 6.0. On the procedure: (§4) A similar FACS analysis was also carried out using 293 cells expressing cyno EpCAM. […] The EC50 values for binding to the 293 cells expressing cyno EpCAM by the humanized conditionally active anti-EpCAM antibodies are summarized in Table 11.

Experiment [7] addresses T1, recombinant human EpCAM extracellular …. As to the kind of experiment: ELISA with pH titration, human EpCAM. On the procedure:
The binding activities of the humanized conditionally active anti-EpCAM antibodies to human EpCAM with pH titration were also measured by ELISA.
as §3
(An ELISA detects its analyte on a solid surface through an enzyme-linked reagent.)

The target in experiment [8] is T2, human EpCAM expressed on cells (CHO, …). Briefly: FACS on 293 cells expressing human EpCAM, pH 6.0. As for the experimental part: (§5) A similar FACS analysis was also carried out using 293 cells expressing human EpCAM. […] The EC50 values for binding to the 293 cells expressing human EpCAM by the humanized conditionally active anti-EpCAM antibodies are summarized in Table 10.

Experiment [9] addresses T4, cyno EpCAM expressed on 293 cells. Briefly: FACS on 293 cells expressing cyno EpCAM, pH 7.4. As for the experimental part:
as §4

The target of experiment [10] is T1, recombinant human EpCAM extracellular …. As to the kind of experiment: ELISA, human EpCAM, pH 6.0. As for the experimental part:
(§6) The binding activities of the humanized conditionally active anti-EpCAM antibodies to human EpCAM were measured by ELISA, using the template antibody BAP-1-5-01-06, as a control. The EC50 values of the humanized conditionally active anti-EpCAM antibodies for binding to human EpCAM at pH 6.0 and pH 7.4 are summarized in Table 5.
as §3

Experiment [11] shares this target. Briefly: ELISA, human EpCAM, pH 7.4. As for the experimental part: as §6, §3
The target in experiment [12] is T2, human EpCAM expressed on cells (CHO, …). Briefly: FACS on 293 cells expressing human EpCAM, pH 7.4. As for the experimental part:
as §5

In experiment [13] the target is T3, cyno EpCAM (recombinant, ELISA antigen). Briefly: ELISA with pH titration, cyno EpCAM. As for the experimental part:
The binding activities of the humanized conditionally active anti-EpCAM antibodies to cyno EpCAM with pH titration was similarly measured by ELISA.
as §3

The target in experiment [14] is T2, human EpCAM expressed on cells (CHO, …). As to the kind of experiment: cell-based or functional assay.

T3 sequence (Q1WER1 24-265): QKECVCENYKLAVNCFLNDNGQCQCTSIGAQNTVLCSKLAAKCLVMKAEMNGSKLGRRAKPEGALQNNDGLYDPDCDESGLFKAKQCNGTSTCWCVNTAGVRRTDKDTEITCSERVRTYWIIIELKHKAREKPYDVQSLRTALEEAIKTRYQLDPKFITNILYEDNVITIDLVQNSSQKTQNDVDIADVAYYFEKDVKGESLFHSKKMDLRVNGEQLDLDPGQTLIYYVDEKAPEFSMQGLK
T4 sequence (Q1WER1 24-314): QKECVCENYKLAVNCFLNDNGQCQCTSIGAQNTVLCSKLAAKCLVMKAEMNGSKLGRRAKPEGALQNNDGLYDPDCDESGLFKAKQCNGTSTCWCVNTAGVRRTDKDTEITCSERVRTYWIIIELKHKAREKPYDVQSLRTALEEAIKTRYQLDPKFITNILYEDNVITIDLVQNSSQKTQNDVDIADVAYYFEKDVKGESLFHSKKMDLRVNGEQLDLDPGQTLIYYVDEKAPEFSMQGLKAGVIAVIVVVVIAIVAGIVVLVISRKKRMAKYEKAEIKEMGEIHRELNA

B1: BAP-105-01-02 (antibody, V domains shown)
VH: QVQLQQSGAELAKPGASVKVSCKASGYTFTSYWMHWVKQRPGQGLEWIGDIRPSTGYTEYNQKFKDKATLTADKSSSTAYMQLSSLTFEDSAVYYCGRGDNWVGFANWGQGTLVTVSA
VL: QIVLTQSPAIMSASLGEEIALTCSASSSISYMHWYQQKSGTSPKLLIYSTSNLASGVPSRFSGSGSGTFYSLTISSVEAEDAADYFCHQWSTYHTFGSGTKLEIK
B1: in experiment [1], the binding result is listed as “binds”.

B2: BAP-105-01-05 (antibody, V domains shown)
VH: B1 VH with D50Y
VL: B1 VL with H88E
On to B2, for which, in [1], the binding result is given as “binds”.

B3: BAP-105-01-04 (antibody, V domains shown)
VH: B1 VH with D50Y
VL: B1 VL with A54H
B3: the binding result in experiment [1] was “binds”.

B4: BAP-105.4-03-02 (antibody, V domains shown)
VH: EVQLVQSGAEVKKPGESLRISCKGSGYTFTSYWMHWIRQSPSRGLEWLGYIRPSTGYTEYNQKFKDRVTISADKSISTAYLQWSSLKASDTAMYYCGRGDNWVGFANWGQGTLVTVSS
VL: EIVMTQSPATLSVSPGERATLSCSASSSISYMHWYQQKPGKAPKLLIYSTSNLASGIPPRFSGSGYGTDFTLTINNIESEDAAYYFCHQWSTYETFGQGTKVEIK
notes: Humanized
As a reminder, the EC50 is the concentration at which the effect is half-maximal. With B4, the EC50 in [2] was 0.67 µg/mL; in experiment [3], 0.105 µg/mL; in experiment [4], 0.084 µg/mL; in experiment [5], 0.497 µg/mL; in [6], 1.42 µg/mL; in [8] it was 0.118 µg/mL. Also, the EC50 in experiment [9] is 4.46 µg/mL; in experiment [10], 0.0191 µg/mL; in [11], 0.0487 µg/mL; in experiment [12], 0.159 µg/mL. Also, the pH inflection point in experiment [7] was 6.82 pH; in experiment [13] it was 6.35 pH.

B5: BAP-105-06-01 conjugated to MMAE (antibody, V domains shown)
VH: EVQLVQSGAEVKKPGATVKISCKVSGYTFTSYWMHWIRQPPGKGLEWIGYIRPSTGYTEYNQKFKDRFTISRDNSKNTLYLQMNSLRAEDTAVYYCGRGDNWVGFANWGQGTLVTVSS
VL: EIVLTQSPDFQSVTPKEKVTITCSASSSISYMHWYQQKPGKAPKLLIYSTSKLASGVPDRFSGSGSGTDFTLKISRVEAEDVGVYYCHQWSTYETFGQGTKVEIK
modifications: antibody conjugated to MMAE; chain and residues of attachment not stated
B5: in experiment [14], the “IC50 for the in vitro killing of Colo205 cells, pH6.0” value was determined as 101 ng/mL; the “IC50 for the in vitro killing of Colo205 cells, pH7.4” value was determined as 550 ng/mL; the “ratio (pH7.4/pH6.0) of the IC50 for the in vitro killing of Colo205 cells” value worked out at 5.47.

B6: BAP-105.4-02-01 (antibody, V domains shown)
VH: B5 VH with I37V, P40A, K43Q, I48M
VL: EIVMTQSPATLSVSPGERATLSCSASSSISYMHWYQQKPGKAPKLLIYSTSNLASGVPSRFSGSGSGTEFTLTISSLQPDDFATYYCHQWSTYETFGQGTKVEIK
notes: Humanized
As to B6, the EC50 in experiment [2] came out at 0.652 µg/mL; in [3], 0.0359 µg/mL; in experiment [4], 0.674 µg/mL; in experiment [5], 0.321 µg/mL; in experiment [6], 2.42 µg/mL; in [8], 0.215 µg/mL. Also, the 50% effective concentration (EC50) in [9] worked out at 14.1 µg/mL; in [10], 0.0154 µg/mL; in [11], 114 µg/mL; in experiment [12], 0.238 µg/mL. Further, the pH inflection point in [7] was determined as 6.6 pH; in experiment [13] it was 6.17 pH.

B7: BAP-105-06-02 conjugated to MMAE (antibody, V domains shown)
VH: B5 VH
VL: B5 VL with K52S
modifications: antibody conjugated to MMAE; chain and residues of attachment not stated
For B7, in [14], the “IC50 for the in vitro killing of Colo205 cells, pH6.0” value was determined as 146 ng/mL; the “IC50 for the in vitro killing of Colo205 cells, pH7.4” value is 708 ng/mL; the “ratio (pH7.4/pH6.0) of the IC50 for the in vitro killing of Colo205 cells” value stood at 4.86.

B8: BAP-105.4-01-02 (antibody, V domains shown)
VH: B4 VH
VL: B5 VL with K52N
notes: Humanized
Consider B8, for which the EC50 turned out to be 0.397 µg/mL in experiment [2]; 0.208 µg/mL in [3]; 0.194 µg/mL in experiment [4]; 0.273 µg/mL in experiment [5]; 1.26 µg/mL in experiment [6]; 0.116 µg/mL in experiment [8]. Also, the EC50 in experiment [9] was 6.36 µg/mL; in [10], 0.0147 µg/mL; in experiment [11] it was 0.066 µg/mL; in experiment [12], 0.174 µg/mL. The results for the pH inflection point in experiment [7] and in [13] were 6.87 pH and 6.27 pH, respectively.
